T1: FcγRIIa R (human, UniProt P12318 34-217)
T1 construct: extracellular domain; also called FcgRIIa R; FcγRIIa type R; not shown: His tag at the C terminus
T1 sequence (looked up): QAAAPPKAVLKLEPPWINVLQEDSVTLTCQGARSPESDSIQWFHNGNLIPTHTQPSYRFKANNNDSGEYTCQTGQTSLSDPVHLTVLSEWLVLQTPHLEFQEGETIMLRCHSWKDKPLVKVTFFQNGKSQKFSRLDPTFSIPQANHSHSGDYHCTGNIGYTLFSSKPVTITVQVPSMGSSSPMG

T2: FcγRIIb (human, UniProt P31994 43-217)
T2 construct: extracellular domain; also called FcgRIIb; 2b; not shown: His tag at the C terminus
T2 sequence (looked up): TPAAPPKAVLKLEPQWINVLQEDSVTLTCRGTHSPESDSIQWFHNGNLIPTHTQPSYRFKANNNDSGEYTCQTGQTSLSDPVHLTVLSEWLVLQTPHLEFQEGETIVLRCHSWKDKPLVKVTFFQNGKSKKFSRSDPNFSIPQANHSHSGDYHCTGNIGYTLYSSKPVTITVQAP


How the values were obtained:
[1] = molecular target: T3, FcγRIa extracellular domain with C-terminal His tag (human, UniProt P12314 16-292); assay: SPR (Biacore), relative binding, HeCon Ab = 100
T3 construct: extracellular domain; Expressed in FreeStyle293 cells; analyte in the SPR assay; also called FcgRI; 1a

[2] = molecular target: T3, FcγRIa extracellular domain with …; assay: SPR (Biacore); He/Con_1a divided by He/Con_2b (FcγRIa against FcγRIIb)
FcγRIIa R [3] = molecular target: T1, FcγRIIa R; assay: SPR (Biacore T100); He/Con_2aR divided by He/Con_2b (FcγRIIa R over FcγRIIb)
Experimental: (§1) The heterodimerized antibodies He Abs in which one of the H chains was introduced with an alteration were assayed for their binding activities to each activating FcγR and inhibitory FcγR according to the method described in Example 4. […] The activating FcγRs in FIGS. 26, 27, 28, and 29 are FcγRIa, FcγRIIa (R), FcγRIIa (H), and FcγRIIIa, respectively.
(§2) Analysis of interaction between objective antibody and the FcγR was carried out using Biacore T100 (GE Healthcare). HBS-EP+ (GE Healthcare) was used as the running buffer, and the measurement temperature was set to 25° C. Chips produced by immobilizing the antigen peptide by the amine coupling method to a Series S Sencor Chip CM5 (GE Healthcare), or alternatively, chips produced by allowing preliminarily biotinylated antigen peptides to interact with and immobilize onto a Series S Sensor Chip SA (certified) (GE Healthcare) were used. Antibodies of interest were captured onto an antigen peptide-immobilized chip, and allowed to interact to each FcγR diluted with running buffer. To regenerate and repeatedly use the chip, the antibodies captured on the chip were washed off by reacting 10 mM glycine-HCl, pH 1.5.

FcγRIIa R [4] = molecular target: T1, FcγRIIa R; assay: SPR (Biacore T100), antibody captured on antigen peptide chip, FcγR as analyte; binding relative to GpH7-A5/GpH7-B3/GpL16-k0 = 100
Experimental: as §1, §2

FcγRIIb = molecular target: T2, FcγRIIb; assay: as above
Experimental: as §1, §2

T3 sequence (P12314 16-292): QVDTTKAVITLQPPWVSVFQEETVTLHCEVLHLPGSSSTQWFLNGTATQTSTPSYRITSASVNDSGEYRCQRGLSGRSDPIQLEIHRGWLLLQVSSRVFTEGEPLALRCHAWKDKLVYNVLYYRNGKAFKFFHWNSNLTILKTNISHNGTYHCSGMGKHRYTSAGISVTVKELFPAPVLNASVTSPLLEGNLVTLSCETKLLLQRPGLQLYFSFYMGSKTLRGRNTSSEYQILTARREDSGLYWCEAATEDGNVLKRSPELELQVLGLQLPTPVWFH

Binder	He/Con_1a [1]	He_1a/2b (Ia/IIb) [2]	He_2aR/2b (IIaR/IIb) (FcγRIIa R [3])	He/Con_2aR (IIaR binding) (FcγRIIa R [4])	He/Con_2b (IIb binding) (FcγRIIb)
GpH7-A5/GpH7-B3 variant P238_13S/GpL16-k0 (antibody, human IgG1, kappa, Heterodimerized anti-glypican-3 IgG1; mutation in one H chain only; also called He Ab) heavy 1: not shown heavy 2: not shown light: DIVMTQSPLSLPVTPGEPASISCQASESLVHSNRNTYLHWYLQKPGQSPQLLIYKVSNRFSGVPDRFSGSGSGTDFTLKISRVEAEDVGVYYCSQNTHVPPTFGQGTKVEIERTVAAPSVFIFPPSDEQLKSGTASVVCLLNNFYPREAKVQWKVDNALQSGNSQESVTEQDSKDSTYSLSSTLTLSKADYEKHKVYACEVTHQGLSSPVTKSFNRGEC			1.26 ratio	88.9 % of control	70.4 % of control
GpH7-A5/GpH7-B3 variant P238_12R/GpL16-k0 (antibody, human IgG1, kappa, Heterodimerized anti-glypican-3 IgG1; mutation in one H chain only; also called He Ab) heavy 1: not shown heavy 2: not shown light: DIVMTQSPLSLPVTPGEPASISCQASESLVHSNRNTYLHWYLQKPGQSPQLLIYKVSNRFSGVPDRFSGSGSGTDFTLKISRVEAEDVGVYYCSQNTHVPPTFGQGTKVEIERTVAAPSVFIFPPSDEQLKSGTASVVCLLNNFYPREAKVQWKVDNALQSGNSQESVTEQDSKDSTYSLSSTLTLSKADYEKHKVYACEVTHQGLSSPVTKSFNRGEC			1.57 ratio	80.5 % of control	51.4 % of control
GpH7-A5/GpH7-B3 variant G237_16H/GpL16-k0 (antibody, human IgG1, kappa, Heterodimerized anti-glypican-3 IgG1; mutation in one H chain only; also called He Ab) heavy 1: not shown heavy 2: not shown light: DIVMTQSPLSLPVTPGEPASISCQASESLVHSNRNTYLHWYLQKPGQSPQLLIYKVSNRFSGVPDRFSGSGSGTDFTLKISRVEAEDVGVYYCSQNTHVPPTFGQGTKVEIERTVAAPSVFIFPPSDEQLKSGTASVVCLLNNFYPREAKVQWKVDNALQSGNSQESVTEQDSKDSTYSLSSTLTLSKADYEKHKVYACEVTHQGLSSPVTKSFNRGEC			1.35 ratio	74.5 % of control	55.2 % of control
GpH7-A5/GpH7-B3 variant P238_18N/GpL16-k0 (antibody, human IgG1, kappa, Heterodimerized anti-glypican-3 IgG1; mutation in one H chain only; also called He Ab) heavy 1: not shown heavy 2: not shown light: DIVMTQSPLSLPVTPGEPASISCQASESLVHSNRNTYLHWYLQKPGQSPQLLIYKVSNRFSGVPDRFSGSGSGTDFTLKISRVEAEDVGVYYCSQNTHVPPTFGQGTKVEIERTVAAPSVFIFPPSDEQLKSGTASVVCLLNNFYPREAKVQWKVDNALQSGNSQESVTEQDSKDSTYSLSSTLTLSKADYEKHKVYACEVTHQGLSSPVTKSFNRGEC			1.26 ratio	91.9 % of control	73.2 % of control
GpH7-A5/GpH7-B3 variant G237_14T/GpL16-k0 (antibody, human IgG1, kappa, Heterodimerized anti-glypican-3 IgG1; mutation in one H chain only; also called He Ab) heavy 1: not shown heavy 2: not shown light: DIVMTQSPLSLPVTPGEPASISCQASESLVHSNRNTYLHWYLQKPGQSPQLLIYKVSNRFSGVPDRFSGSGSGTDFTLKISRVEAEDVGVYYCSQNTHVPPTFGQGTKVEIERTVAAPSVFIFPPSDEQLKSGTASVVCLLNNFYPREAKVQWKVDNALQSGNSQESVTEQDSKDSTYSLSSTLTLSKADYEKHKVYACEVTHQGLSSPVTKSFNRGEC			1.43 ratio	78.6 % of control	54.8 % of control
GpH7-A5/GpH7-B3 variant P238_14T/GpL16-k0 (antibody, human IgG1, kappa, Heterodimerized anti-glypican-3 IgG1; mutation in one H chain only; also called He Ab) heavy 1: not shown heavy 2: not shown light: DIVMTQSPLSLPVTPGEPASISCQASESLVHSNRNTYLHWYLQKPGQSPQLLIYKVSNRFSGVPDRFSGSGSGTDFTLKISRVEAEDVGVYYCSQNTHVPPTFGQGTKVEIERTVAAPSVFIFPPSDEQLKSGTASVVCLLNNFYPREAKVQWKVDNALQSGNSQESVTEQDSKDSTYSLSSTLTLSKADYEKHKVYACEVTHQGLSSPVTKSFNRGEC			1.44 ratio	73.1 % of control	50.7 % of control
GpH7-A5/GpH7-B3 variant S239_16H/GpL16-k0 (antibody, human IgG1, kappa, Heterodimerized anti-glypican-3 IgG1; mutation in one H chain only; also called He Ab) heavy 1: not shown heavy 2: not shown light: DIVMTQSPLSLPVTPGEPASISCQASESLVHSNRNTYLHWYLQKPGQSPQLLIYKVSNRFSGVPDRFSGSGSGTDFTLKISRVEAEDVGVYYCSQNTHVPPTFGQGTKVEIERTVAAPSVFIFPPSDEQLKSGTASVVCLLNNFYPREAKVQWKVDNALQSGNSQESVTEQDSKDSTYSLSSTLTLSKADYEKHKVYACEVTHQGLSSPVTKSFNRGEC			1.4 ratio	69.2 % of control	49.4 % of control
GpH7-A5/GpH7-B3 variant G237_05P/GpL16-k0 (antibody, human IgG1, kappa, Heterodimerized anti-glypican-3 IgG1; mutation in one H chain only; also called He Ab) heavy 1: not shown heavy 2: not shown light: DIVMTQSPLSLPVTPGEPASISCQASESLVHSNRNTYLHWYLQKPGQSPQLLIYKVSNRFSGVPDRFSGSGSGTDFTLKISRVEAEDVGVYYCSQNTHVPPTFGQGTKVEIERTVAAPSVFIFPPSDEQLKSGTASVVCLLNNFYPREAKVQWKVDNALQSGNSQESVTEQDSKDSTYSLSSTLTLSKADYEKHKVYACEVTHQGLSSPVTKSFNRGEC			1.4 ratio	34.5 % of control	24.6 % of control

Continued, values first:

He/Con_1a [1]	He_1a/2b (Ia/IIb) [2]	He_2aR/2b (IIaR/IIb) (FcγRIIa R [3])	He/Con_2aR (IIaR binding) (FcγRIIa R [4])	He/Con_2b (IIb binding) (FcγRIIb)	Binder
78 % of HeCon Ab (=100)	8.12 ratio				GpH7-A5/GpH7-B3 variant L235_12R/GpL16-k0 (He Ab) (antibody, human IgG1, kappa, He Ab: mutation in one H chain only) heavy 1: not shown heavy 2: not shown light: DIVMTQSPLSLPVTPGEPASISCQASESLVHSNRNTYLHWYLQKPGQSPQLLIYKVSNRFSGVPDRFSGSGSGTDFTLKISRVEAEDVGVYYCSQNTHVPPTFGQGTKVEIERTVAAPSVFIFPPSDEQLKSGTASVVCLLNNFYPREAKVQWKVDNALQSGNSQESVTEQDSKDSTYSLSSTLTLSKADYEKHKVYACEVTHQGLSSPVTKSFNRGEC
		1.24 ratio	54.8 % of control	44.1 % of control	GpH7-A5/GpH7-B3 variant S239_04F/GpL16-k0 (antibody, human IgG1, kappa, Heterodimerized anti-glypican-3 IgG1; mutation in one H chain only; also called He Ab) heavy 1: not shown heavy 2: not shown light: DIVMTQSPLSLPVTPGEPASISCQASESLVHSNRNTYLHWYLQKPGQSPQLLIYKVSNRFSGVPDRFSGSGSGTDFTLKISRVEAEDVGVYYCSQNTHVPPTFGQGTKVEIERTVAAPSVFIFPPSDEQLKSGTASVVCLLNNFYPREAKVQWKVDNALQSGNSQESVTEQDSKDSTYSLSSTLTLSKADYEKHKVYACEVTHQGLSSPVTKSFNRGEC
		1.21 ratio	42.2 % of control	34.9 % of control	GpH7-A5/GpH7-B3 variant S239_15Y/GpL16-k0 (antibody, human IgG1, kappa, Heterodimerized anti-glypican-3 IgG1; mutation in one H chain only; also called He Ab) heavy 1: not shown heavy 2: not shown light: DIVMTQSPLSLPVTPGEPASISCQASESLVHSNRNTYLHWYLQKPGQSPQLLIYKVSNRFSGVPDRFSGSGSGTDFTLKISRVEAEDVGVYYCSQNTHVPPTFGQGTKVEIERTVAAPSVFIFPPSDEQLKSGTASVVCLLNNFYPREAKVQWKVDNALQSGNSQESVTEQDSKDSTYSLSSTLTLSKADYEKHKVYACEVTHQGLSSPVTKSFNRGEC
		2.03 ratio	36.9 % of control	18.1 % of control	GpH7-A5/GpH7-B3 variant P238_11K/GpL16-k0 (antibody, human IgG1, kappa, Heterodimerized anti-glypican-3 IgG1; mutation in one H chain only; also called He Ab) heavy 1: not shown heavy 2: not shown light: DIVMTQSPLSLPVTPGEPASISCQASESLVHSNRNTYLHWYLQKPGQSPQLLIYKVSNRFSGVPDRFSGSGSGTDFTLKISRVEAEDVGVYYCSQNTHVPPTFGQGTKVEIERTVAAPSVFIFPPSDEQLKSGTASVVCLLNNFYPREAKVQWKVDNALQSGNSQESVTEQDSKDSTYSLSSTLTLSKADYEKHKVYACEVTHQGLSSPVTKSFNRGEC
		1.38 ratio	53.9 % of control	39.1 % of control	GpH7-A5/GpH7-B3 variant S239_12R/GpL16-k0 (antibody, human IgG1, kappa, Heterodimerized anti-glypican-3 IgG1; mutation in one H chain only; also called He Ab) heavy 1: not shown heavy 2: not shown light: DIVMTQSPLSLPVTPGEPASISCQASESLVHSNRNTYLHWYLQKPGQSPQLLIYKVSNRFSGVPDRFSGSGSGTDFTLKISRVEAEDVGVYYCSQNTHVPPTFGQGTKVEIERTVAAPSVFIFPPSDEQLKSGTASVVCLLNNFYPREAKVQWKVDNALQSGNSQESVTEQDSKDSTYSLSSTLTLSKADYEKHKVYACEVTHQGLSSPVTKSFNRGEC
		1.31 ratio	75.1 % of control	57.4 % of control	GpH7-A5/GpH7-B3 variant P238_02A/GpL16-k0 (antibody, human IgG1, kappa, Heterodimerized anti-glypican-3 IgG1; mutation in one H chain only; also called He Ab) heavy 1: not shown heavy 2: not shown light: DIVMTQSPLSLPVTPGEPASISCQASESLVHSNRNTYLHWYLQKPGQSPQLLIYKVSNRFSGVPDRFSGSGSGTDFTLKISRVEAEDVGVYYCSQNTHVPPTFGQGTKVEIERTVAAPSVFIFPPSDEQLKSGTASVVCLLNNFYPREAKVQWKVDNALQSGNSQESVTEQDSKDSTYSLSSTLTLSKADYEKHKVYACEVTHQGLSSPVTKSFNRGEC
		1.96 ratio	48.5 % of control	24.7 % of control	GpH7-A5/GpH7-B3 variant S239_11K/GpL16-k0 (antibody, human IgG1, kappa, Heterodimerized anti-glypican-3 IgG1; mutation in one H chain only; also called He Ab) heavy 1: not shown heavy 2: not shown light: DIVMTQSPLSLPVTPGEPASISCQASESLVHSNRNTYLHWYLQKPGQSPQLLIYKVSNRFSGVPDRFSGSGSGTDFTLKISRVEAEDVGVYYCSQNTHVPPTFGQGTKVEIERTVAAPSVFIFPPSDEQLKSGTASVVCLLNNFYPREAKVQWKVDNALQSGNSQESVTEQDSKDSTYSLSSTLTLSKADYEKHKVYACEVTHQGLSSPVTKSFNRGEC
